Numbering of substitutions follows the chain as printed.
B1: antibody 48 (antibody, V domains shown)
VH: QVQLQQSGTELVRPGTSVKVSCKASGYAFTNYLIEWVKQRPGQGLEWIGVINPGSGFTKYNEKFKGKATLTADKSSSTVYMHLSSLTSEDSAVYFCARGLYRAMDYWGQGTSVTVSS
VL: DIQMTQSPASQSASLGESVTITCLASQTIATWLAWYQQKPGKSPQLLIYGATTLADGVPSRFSGGGSGTKFSFKISSLQAEDFVSYYCQQLYSTPYTFGGGTKLEIK
notes: mouse IgG, kappa light chain; also called clone #48; purified antibody 48
B2: antibody 50 (antibody, V domains shown)
VH: B1 VH with T9A, T16A, T30S, V79A, H82Q
VL: B1 VL with A30G, G50A, T52A, T53S, S85N, L91I
notes: mouse IgG, kappa light chain; also called clone #50; purified antibody 50
B3: antibody 42 (antibody, V domains shown)
VH: QVTLKESGPGILQPSQTLSLTCSLSGFSLSTFGRGVGWIRQPSGKGLEWLAHIWWDDEKYYNPALKSRLTISKDTSKNQVFLRIANVDTADTATYYCARIQNYGSNYWYFDVWGTGTTVTVSS
VL: LIVLTQSPAIMSASPGEKVTMTCGATSRISYMFWYQQKPGSSPRVLIYDTSNLASGVPVRFSGSGSGTSYSLTISRVEAEDVATYYCQQWNSYPLTFGAGTKLELK
notes: mouse IgG, kappa light chain; also called clone #42; purified antibody 42

Target: T1, hiR2-FL-A560S-T7 (human, UniProt Q6PJF5 1-856)
T1 sequence: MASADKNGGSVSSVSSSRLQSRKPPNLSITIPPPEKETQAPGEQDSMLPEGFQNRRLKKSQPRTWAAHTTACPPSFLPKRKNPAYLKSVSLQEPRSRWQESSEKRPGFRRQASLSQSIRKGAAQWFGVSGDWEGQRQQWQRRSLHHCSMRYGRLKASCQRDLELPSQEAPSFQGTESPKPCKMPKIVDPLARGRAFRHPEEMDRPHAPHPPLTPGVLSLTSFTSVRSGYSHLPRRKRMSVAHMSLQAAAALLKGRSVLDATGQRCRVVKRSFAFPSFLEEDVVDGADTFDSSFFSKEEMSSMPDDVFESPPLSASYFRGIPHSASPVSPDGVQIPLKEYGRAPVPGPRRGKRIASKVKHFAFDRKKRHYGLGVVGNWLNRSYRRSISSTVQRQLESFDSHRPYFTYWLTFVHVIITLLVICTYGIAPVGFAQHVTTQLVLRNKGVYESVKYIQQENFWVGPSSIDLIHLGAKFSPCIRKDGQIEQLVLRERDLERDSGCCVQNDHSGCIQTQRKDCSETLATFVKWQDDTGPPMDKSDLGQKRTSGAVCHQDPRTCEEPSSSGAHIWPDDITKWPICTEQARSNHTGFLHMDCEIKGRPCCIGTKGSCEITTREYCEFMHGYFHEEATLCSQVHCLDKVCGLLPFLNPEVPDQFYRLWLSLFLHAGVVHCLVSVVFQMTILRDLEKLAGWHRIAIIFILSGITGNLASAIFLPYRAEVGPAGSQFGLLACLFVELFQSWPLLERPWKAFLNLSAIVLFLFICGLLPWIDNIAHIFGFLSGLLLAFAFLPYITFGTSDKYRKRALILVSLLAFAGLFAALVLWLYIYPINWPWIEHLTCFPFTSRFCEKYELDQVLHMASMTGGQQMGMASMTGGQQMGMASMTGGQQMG
Assay: FACS, MEF-DKO cells, 3 µg/ml

Row | Binder | loss of binding vs wild type [%]
1 | B1 | ≥ 30
2 | B2 | ≥ 30
3 | B3 | ≥ 30

Target: T2, hiR2-FL-T530P-T7 (human, UniProt Q6PJF5 1-856)
T2 sequence: T1 sequence with T530P, S560A
Assay: FACS, MEF-DKO cells, 3 µg/ml

Row | Binder | loss of binding vs wild type [%]
4 | B1 | ≥ 30
5 | B2 | ≥ 30
6 | B3 | ≥ 30
